Experimental findings from patent US20030036642, “Platelet derived growth factor (PDGF) nucleic acid ligand complexes” (published 2003) are described below.

Residue numbers refer to the chain shown, from its start.

The chains are these.
B1: 20t (ssDNA)
DNA: TGGGAGGGCGCGTTCTTCGTGGTTACTTTTAGTCCCGT
modifications: 3'-3' inverted T at nt 38
B2: 41t (ssDNA)
DNA: TACTCAGGGCACTGCAAGCAATTGTGGTCCCAATGGGCTGAGTAT
modifications: 3'-3' inverted T at nt 45
B3: 36t (ssDNA)
DNA: CACAGGCTACGGCACGTAGAGCATCACCATGATCCTGTGT
modifications: 3'-3' inverted T at nt 40
B4: 1074 (ssDNA)
DNA: CACAGGCTACGGCACGUAGAGCATCACCATGATCCTGTG
modifications: 2'-OMe C10,G11,G12,C13,A14,C15,G16,U17; 3'-3' inverted T at nt 40
B5: 1159 (ssDNA)
DNA: B4 DNA with U17T
modifications: 2'-F U24; 3'-3' inverted T at nt 40
B6: 1265 (ssDNA)
DNA: B4 DNA with U17T, T36U, T38U
modifications: 2'-OMe C10,G11,G12,C13,A14,C25,A26,C27,C28,A29,U36,G37,U38,G39; 2'-F C34; 3'-3' inverted T at nt 40
B7: 1076 (ssDNA)
DNA: B4 DNA with T30U
modifications: 2'-OMe C1,A2,C3,C10,G11,G12,C13,A14,C15,G16,U17,A26,C27,C28,A29,U30; 3'-3' inverted T at nt 40
B8: 1163 (ssDNA)
DNA: B4 DNA with U17T
modifications: 2'-F U30; 3'-3' inverted T at nt 40
B9: 1144 (ssDNA)
DNA: B4 DNA with U17T, T33U, T36U
modifications: 2'-OMe G31,A32,U33,C34,C35,U36; 3'-3' inverted T at nt 40
B10: 1148 (ssDNA)
DNA: B4 DNA with T8U, U17T
modifications: 2'-OMe A4,G5,G6,C7,U8,A9; 3'-3' inverted T at nt 40
B11: 1166 (ssDNA)
DNA: B4 DNA with U17T
modifications: 2'-F U17; 3'-3' inverted T at nt 40
B12: 1158 (ssDNA)
DNA: B4 DNA with U17T
modifications: 2'-F U33; 3'-3' inverted T at nt 40
B13: 1267 (ssDNA)
DNA: B4 DNA with U17T, T36U, T38U
modifications: 2'-OMe C10,G11,G12,C13,A14,C25,A26,C27,C28,A29,U36,G37,U38,G39; 2'-F C34,C35; 3'-3' inverted T at nt 40
B14: EV5 (ssDNA)
DNA: B4 DNA with U17T, T36U, T38U
modifications: 2'-OMe U36,G37,U38,G39; 3'-3' inverted T at nt 40
B15: 1075 (ssDNA)
DNA: B4 DNA with U17T, T30U
modifications: 2'-OMe A26,C27,C28,A29,U30; 3'-3' inverted T at nt 40
B16: 1164 (ssDNA)
DNA: B4 DNA with U17T
modifications: 2'-F U8; 3'-3' inverted T at nt 40
B17: 1269 (ssDNA)
DNA: B4 DNA with T8U, U17T, T36U, T38U
modifications: 2'-F U8,C34; 2'-OMe C10,G11,G12,C13,A14,C25,A26,C27,C28,A29,U36,G37,U38,G39; 3'-3' inverted T at nt 40
B18: 1257 (ssDNA)
DNA: B4 DNA with U17T, T38U
modifications: 2'-OMe C10,G11,G12,C13,A14,A26,C27,C28,A29,G37,U38,G39; 2'-F C34; 3'-3' inverted T at nt 40
B19: EV2 (ssDNA)
DNA: B4 DNA
modifications: 2'-OMe G12,C13,A14,C15,G16,U17; 3'-3' inverted T at nt 40
B20: 1142 (ssDNA)
DNA: B4 DNA with T24U
modifications: 2'-OMe U17,A23,U24; 3'-3' inverted T at nt 40
B21: 1297 (ssDNA)
DNA: CAGGCUCGGCACGAGAGCAUCCCAGATCCUG
modifications: 2'-F U6,U20,C21,C28,C29; 2'-OMe C7,G8,G9,C10,A11,C22,C23,A24,U30,G31; 3'-3' inverted T at nt 32
B22: 1295 (ssDNA)
DNA: CAGGCUACGGCACGTAGAGCAUCACCATGATCCUG
modifications: 2'-F U6,U22,C23,C32,C33; 2'-OMe C8,G9,G10,C11,A12,A24,C25,C26,A27,U34,G35; 3'-3' inverted T at nt 36
B23: 1305 (ssDNA)
DNA: B22 DNA
modifications: 2'-OMe C5,U6,C8,G9,G10,C11,A12,A18,U22,C23,A24,C25,C26,A27,C32,C33,U34,G35; 3'-3' inverted T at nt 36
B24: 1306 (ssDNA)
DNA: B22 DNA
modifications: 2'-OMe C5,U6,C8,G9,G10,C11,A12,G19,U22,C23,A24,C25,C26,A27,C32,C33,U34,G35; 3'-3' inverted T at nt 36
B25: 1374 (ssDNA)
DNA: B22 DNA
modifications: 2'-F U6,U22,C23,C32,C33; 2'-OMe A7,C8,G9,G10,C11,A12,G17,G19,A24,C25,C26,A27,U34,G35; 3'-3' inverted T at nt 36
B26: 1304 (ssDNA)
DNA: B22 DNA
modifications: 2'-OMe C5,U6,A7,C8,G9,G10,C11,A12,U22,C23,A24,C25,C26,A27,C32,C33,U34,G35; 3'-3' inverted T at nt 36
B27: 1303 (ssDNA)
DNA: B22 DNA
modifications: 2'-F U6; 2'-OMe C8,G9,G10,C11,A12,U22,C23,A24,C25,C26,A27,C32,C33,U34,G35; 3'-3' inverted T at nt 36
B28: 1327 (ssDNA)
DNA: B22 DNA
modifications: 2'-F U6,U22,C23,C32,C33; 2'-OMe C8,G9,G10,C11,A12,G19,A24,C25,C26,A27,U34,G35; 3'-3' inverted T at nt 36
B29: 1328 (ssDNA)
DNA: B22 DNA
modifications: 2'-F U6,U22,C23,C32,C33; 2'-OMe C8,G9,G10,C11,A12,G19,C20,A24,C25,C26,A27,U34,G35; 3'-3' inverted T at nt 36
B30: 1329 (ssDNA)
DNA: B22 DNA
modifications: 2'-F U6,U22,C23,C32,C33; 2'-OMe C8,G9,G10,C11,A12,G17,G19,C20,A24,C25,C26,A27,U34,G35; 3'-3' inverted T at nt 36
B31: 1369 (ssDNA)
DNA: B22 DNA
modifications: 2'-F U6,U22,C23,C32,C33; 2'-OMe C8,G9,G10,C11,A12,G17,G19,A24,C25,C26,A27,U34,G35; 3'-3' inverted T at nt 36
B32: 1266 (ssDNA)
DNA: CACAGGCUACGGCACGTAGAGCAUCACCATGATCCUGUG
modifications: 2'-F U8,U24,C25,C34,C35; 2'-OMe C10,G11,G12,C13,A14,A26,C27,C28,A29,U36,G37,U38,G39; 3'-3' inverted T at nt 40
B33: 1296 (ssDNA)
DNA: CAGGCUCGGCACGAGAGCAUCACCATGATCCUG
modifications: 2'-F U6,U20,C21,C30,C31; 2'-OMe C7,G8,G9,C10,A11,A22,C23,C24,A25,U32,G33; 3'-3' inverted T at nt 34
B34: 1145 (ssDNA)
DNA: B3 DNA
modifications: 2'-OMe C25,A26,C27,C28,A29; 3'-3' inverted T at nt 40
B35: 1149 (ssDNA)
DNA: B3 DNA
modifications: 2'-OMe G19,A20,G21,C22; 3'-3' inverted T at nt 40
B36: EV3 (ssDNA)
DNA: B3 DNA
modifications: 2'-OMe C10,G11,G12,C13,A14; 3'-3' inverted T at nt 40
B37: EV1 (ssDNA)
DNA: B3 DNA
modifications: 2'-OMe A20,G21,C22; 3'-3' inverted T at nt 40
B38: 1157 (ssDNA)
DNA: B3 DNA
modifications: 2'-F C7; 3'-3' inverted T at nt 40
B39: EV4 (ssDNA)
DNA: B3 DNA
modifications: 2'-OMe C1,A2,C3,A4; 3'-3' inverted T at nt 40
B40: 1161 (ssDNA)
DNA: B3 DNA
modifications: 2'-F C25; 3'-3' inverted T at nt 40
B41: 1162 (ssDNA)
DNA: B3 DNA
modifications: 2'-F C34; 3'-3' inverted T at nt 40
B42: 1165 (ssDNA)
DNA: B3 DNA
modifications: 2'-F C35; 3'-3' inverted T at nt 40
B43: 1160 (ssDNA)
DNA: B3 DNA
modifications: 2'-F C22; 3'-3' inverted T at nt 40
B44: 36ta (ssDNA)
DNA: CAGGCTACGGCACGTAGAGCATCACCATGATCCTGT
modifications: 3'-3' inverted T at nt 36

PDGF-AB (A-chain/B-chain heterodimer), sequence (P01127 82-190, chain 2 of 2, other chains not shown): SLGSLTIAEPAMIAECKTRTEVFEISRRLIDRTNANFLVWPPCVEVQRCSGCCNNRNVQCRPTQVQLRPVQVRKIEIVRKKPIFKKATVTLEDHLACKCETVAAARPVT

The first series deals with T1, PDGF-BB (mature B-chain homodimer) (Homo sapiens, UniProt P01127 P01127:82-190). The series is described as follows: inhibition; 125I-PDGF-BB binding to alpha-receptor on PAE cells, 4 C. As to conditions: tags: R&D Systems, expressed in E. coli, carrier-free; chain copies: 2 B-chains (stated as BB isoform); three-way helix junction. The method, then: Receptor Binding Assay. The binding of ′ ²⁵I-PDGF-AA and ¹²⁵I-PDGF-BB to porcine aortic endothelial (PAE) cells transfected with PDGF α- or β-receptors were performed as described (Heldin et al., (1988) EMBO J. 7:1387-1394). Different concentrations of DNA ligands were added to the cell culture (1.5 cm²) in 0.2 ml of phosphate buffered saline supplemented with 1 mg bovine serum albumin per ml together with ¹²⁵I-PDGF-AA (2 ng, 100,000 cpm) or ¹²⁵I-PDGF-BB (2 ng, 100,000 cpm). After incubation at 4° C. for 90 min, the cell cultures were washed and cell associated radioactivity determined in a g-counter (Heldin et al., (1988) EMBO J. 7:1387-1394).
T1 sequence (P01127 82-190, one chain of several): as the sequence (P01127 82-190, chain 2 of 2, other chains not shown) above
Take B1: the IC50 – broadly, the midpoint of a concentration-inhibition curve – was around 1 nM. Still for that read-out and setting: the result for B2 reads around 1 nM; that for B3, around 1 nM.

A further series concerns the target PDGF-AB (A-chain/B-chain heterodimer) (Homo sapiens, UniProt P04085;P01127 P04085:87-211,P01127:82-190). The series is described as follows: filter. As to conditions: tags: R&D Systems, expressed in E. coli, carrier-free. On the procedure:
(§1) Determination of the apparent equilibrium dissociation constants and the dissociation rate constants. The binding of ssDNA ligands at low concentrations to varying concentrations of PDGF was determined by the nitrocellulose filter binding method as described (Green et al. (1995) Chemistry and Biology 2:683-695). […] All ssDNA ligands were heated at 90° C. in binding buffer at high dilution (≈1 nM) for 2 min and cooled on ice prior to further dilution into the protein solution. The binding mixtures were typically incubated for 15 min at 37° C. before partitioning on nitrocellulose filters.
The molecule B4 showed a binding signal of 3.1 Kd ligand/Kd 36t. Turning to B5, the binding signal was 0.37 Kd ligand/Kd 36t. Molecule B6 came in with a binding signal of 1.4 Kd ligand/Kd 36t. In the case of B7, the binding signal was determined as 440 Kd ligand/Kd 36t. Consider B8, for which the binding signal amounted to 1.3 Kd ligand/Kd 36t. B9 displayed a binding signal of 994 Kd ligand/Kd 36t. Consider B10, for which the binding signal was determined as 281 Kd ligand/Kd 36t.

B11: the binding signal came out at 0.76 Kd ligand/Kd 36t. Same read-out and setting: with B12 the figure was 2.4 Kd ligand/Kd 36t; with B13, 4.2 Kd ligand/Kd 36t. Molecule B14 had a binding signal of 2.3 Kd ligand/Kd 36t.

As to B15, the binding signal is 10 Kd ligand/Kd 36t.

Molecule B16 gave a binding signal of 0.45 Kd ligand/Kd 36t. Take B17: the binding signal was 0.87 Kd ligand/Kd 36t. Consider B18, for which the binding signal amounted to 1.3 Kd ligand/Kd 36t. As for B19, the binding signal was found to be 5.3 Kd ligand/Kd 36t. The same measure, in the same setting: with B20 the figure was 12.9 Kd ligand/Kd 36t; with B21, 2.9 Kd ligand/Kd 36t.

The molecule B22 registered a binding signal of 0.9 Kd ligand/Kd 36t.

The molecule B23 came in with a binding signal of 196 Kd ligand/Kd 36t. On the same count and under the same terms, with B24 the figure was 4.4 Kd ligand/Kd 36t; with B25, 1.5 Kd ligand/Kd 36t; with B26, 607 Kd ligand/Kd 36t. In turn, B27 returned a binding signal of 5.8 Kd ligand/Kd 36t. Still for that read-out and setting: the result for B28 reads 0.63 Kd ligand/Kd 36t. The molecule B29 gave a binding signal of 2.2 Kd ligand/Kd 36t. The same measure, in the same setting: with B30 the figure was 0.72 Kd ligand/Kd 36t. B31 displayed a binding signal of 0.37 Kd ligand/Kd 36t.

Molecule B32 gave a binding signal of 1 Kd ligand/Kd 36t. The same measure, in the same setting: the result for B33 reads 2.1 Kd ligand/Kd 36t. Regarding B34, the binding signal stood at 0.27 Kd ligand/Kd 36t. As for B35, the binding signal was found to be 2.9 Kd ligand/Kd 36t. B36 returned a binding signal of 1.5 Kd ligand/Kd 36t. With B37, the binding signal came to 35.1 Kd ligand/Kd 36t. As to B38, the binding signal is 1 Kd ligand/Kd 36t.

Molecule B39 returned a binding signal of 4.5 Kd ligand/Kd 36t. Same read-out and setting: with B40 the figure was 0.22 Kd ligand/Kd 36t; with B41, 0.52 Kd ligand/Kd 36t. In the case of B42, the binding signal turned out to be 0.61 Kd ligand/Kd 36t. The same measure, in the same setting: with B43 the figure was 1.4 Kd ligand/Kd 36t.

The target of a further series is T1, PDGF-BB (mature B-chain homodimer). Kind of series: filter; printed as 0.159 ± 13 pM, unit evidently nM ± pM. The settings on record: tags: R&D Systems, expressed in E. coli, carrier-free; chain copies: 2 B-chains (stated as BB isoform). The method, then:
as §1
Turning to B44, the Kd (in general, the free concentration of one partner at which half of the binding sites on the other are occupied at equilibrium, for simple one-to-one binding) turned out to be 0.159 nM.
